Measured values taken from publication PMC9482650, “Quantitative fragmentomics allow affinity mapping of interactomes” (Nature Communications, 2022).

T1: RGS12, O14924
T1 sequence (O14924 17-108, limits assumed, looked up): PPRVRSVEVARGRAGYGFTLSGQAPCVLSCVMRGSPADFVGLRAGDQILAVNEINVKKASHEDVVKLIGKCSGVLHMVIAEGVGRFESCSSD

T2: PDZD11, Q5EBL8
T2 sequence (Q5EBL8 42-139, limits assumed, looked up): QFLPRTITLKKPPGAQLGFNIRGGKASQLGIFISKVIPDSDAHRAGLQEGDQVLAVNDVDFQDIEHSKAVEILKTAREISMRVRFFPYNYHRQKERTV

T3: SNTB2, Q13425
T3 sequence (Q13425 110-208, limits assumed, looked up): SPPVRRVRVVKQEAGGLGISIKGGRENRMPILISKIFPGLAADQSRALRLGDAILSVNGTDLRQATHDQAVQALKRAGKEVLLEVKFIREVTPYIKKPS

T4: USH1C_2, Q9Y6N9
T4 sequence (Q9Y6N9 206-303, limits assumed, looked up): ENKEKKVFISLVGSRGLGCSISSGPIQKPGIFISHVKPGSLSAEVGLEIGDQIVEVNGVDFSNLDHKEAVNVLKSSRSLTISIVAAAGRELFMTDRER

T5: PDZD2_4, O15018
T5 sequence (O15018 723-823, limits assumed, looked up): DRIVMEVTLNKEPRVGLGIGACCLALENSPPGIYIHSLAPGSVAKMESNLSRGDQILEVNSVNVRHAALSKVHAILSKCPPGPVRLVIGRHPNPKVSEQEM

T6: PREX2_2, Q70Z35
T6 sequence (Q70Z35 672-764, limits assumed, looked up): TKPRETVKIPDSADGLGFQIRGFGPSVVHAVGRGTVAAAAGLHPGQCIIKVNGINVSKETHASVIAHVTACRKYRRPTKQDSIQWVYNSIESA

T7: GRIP1_1, Q9Y3R0
T7 sequence (Q9Y3R0 48-146, limits assumed, looked up): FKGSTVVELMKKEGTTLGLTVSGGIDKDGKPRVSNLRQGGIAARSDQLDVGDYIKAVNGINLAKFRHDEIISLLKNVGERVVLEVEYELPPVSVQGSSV

T8: USH1C_1, Q9Y6N9
T8 sequence (Q9Y6N9 82-179, limits assumed, looked up): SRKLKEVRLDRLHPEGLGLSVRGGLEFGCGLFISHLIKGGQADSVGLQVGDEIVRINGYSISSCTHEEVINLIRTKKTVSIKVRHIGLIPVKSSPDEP

T9: GIPC1, O14908
T9 sequence (O14908 128-223, limits assumed, looked up): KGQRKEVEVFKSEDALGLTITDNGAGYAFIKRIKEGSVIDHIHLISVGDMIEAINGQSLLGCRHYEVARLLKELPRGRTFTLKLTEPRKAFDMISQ

T10: NHERF3_2, Q5T2W1
T10 sequence (Q5T2W1 129-225, limits assumed, looked up): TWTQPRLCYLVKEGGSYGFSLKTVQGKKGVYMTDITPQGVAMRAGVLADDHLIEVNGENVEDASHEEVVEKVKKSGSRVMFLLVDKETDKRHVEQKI

T11: MPDZ_13, O75970
T11 sequence (O75970 1982-2070, limits assumed, looked up): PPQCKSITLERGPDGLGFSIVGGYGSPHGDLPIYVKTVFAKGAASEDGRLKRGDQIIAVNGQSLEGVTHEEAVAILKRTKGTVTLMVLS

T12: MPP5, Q8N3R9
T12 sequence (Q8N3R9 251-346, limits assumed, looked up): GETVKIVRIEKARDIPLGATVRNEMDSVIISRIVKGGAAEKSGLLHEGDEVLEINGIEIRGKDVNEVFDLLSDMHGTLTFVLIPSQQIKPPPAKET

T13: MPDZ_2, O75970
T13 sequence (O75970 252-347, limits assumed, looked up): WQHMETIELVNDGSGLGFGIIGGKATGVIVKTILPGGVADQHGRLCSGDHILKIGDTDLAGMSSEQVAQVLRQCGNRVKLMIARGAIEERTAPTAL

T14: MLLT4, P55196
T14 sequence (P55196 1002-1103, limits assumed, looked up): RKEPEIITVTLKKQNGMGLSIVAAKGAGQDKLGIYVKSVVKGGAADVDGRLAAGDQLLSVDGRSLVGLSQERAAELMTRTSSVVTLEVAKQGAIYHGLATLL


Assays:
Assay in all cases: holdup assay
Parameters in all cases: key: below the threshold = too weak to quantify, mostly under pKd 3.1 to 4
Conditions in all cases: plain residues with an end cap or a label only (N-terminal biotin on a linker: ttds)
RGS12, O14924 = target: T1, RGS12, O14924
CNKSR3, Q6P9H4 = target: CNKSR3, Q6P9H4
PARD3B_3, Q8TEW8 = target: PARD3B_3, Q8TEW8
AHNAK2, Q8IVF2 = target: AHNAK2, Q8IVF2
PDZD11, Q5EBL8 = target: T2, PDZD11, Q5EBL8
SNTB2, Q13425 = target: T3, SNTB2, Q13425
USH1C_2, Q9Y6N9 = target: T4, USH1C_2, Q9Y6N9
PDZD2_4, O15018 = target: T5, PDZD2_4, O15018
PREX2_2, Q70Z35 = target: T6, PREX2_2, Q70Z35
GRIP1_1, Q9Y3R0 = target: T7, GRIP1_1, Q9Y3R0
MAGI1_4, Q96QZ7 = target: MAGI1_4, Q96QZ7
USH1C_1, Q9Y6N9 = target: T8, USH1C_1, Q9Y6N9
MAGI3_3, Q5TCQ9 = target: MAGI3_3, Q5TCQ9
GIPC1, O14908 = target: T9, GIPC1, O14908
NHERF3_2, Q5T2W1 = target: T10, NHERF3_2, Q5T2W1
RIMS1, Q86UR5 = target: RIMS1, Q86UR5
MPDZ_13, O75970 = target: T11, MPDZ_13, O75970
PDLIM4, P50479 = target: PDLIM4, P50479
MPP5, Q8N3R9 = target: T12, MPP5, Q8N3R9
MAGI3_4, Q5TCQ9 = target: MAGI3_4, Q5TCQ9
MPDZ_2, O75970 = target: T13, MPDZ_2, O75970
MLLT4, P55196 = target: T14, MLLT4, P55196

Sequence of PDLIM4, P50479 (P50479 1-83): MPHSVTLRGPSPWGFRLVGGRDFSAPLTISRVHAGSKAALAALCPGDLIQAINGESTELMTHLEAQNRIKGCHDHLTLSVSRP
Sequence of CNKSR3, Q6P9H4 (Q6P9H4 203-303): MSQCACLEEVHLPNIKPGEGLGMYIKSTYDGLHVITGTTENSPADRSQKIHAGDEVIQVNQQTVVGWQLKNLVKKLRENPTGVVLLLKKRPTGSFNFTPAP
Sequence of RIMS1, Q86UR5 (Q86UR5 584-692): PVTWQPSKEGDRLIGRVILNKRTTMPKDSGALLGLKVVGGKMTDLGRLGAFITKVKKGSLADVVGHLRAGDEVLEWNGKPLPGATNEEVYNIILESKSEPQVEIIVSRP
Sequence of AHNAK2, Q8IVF2 (Q8IVF2 108-193): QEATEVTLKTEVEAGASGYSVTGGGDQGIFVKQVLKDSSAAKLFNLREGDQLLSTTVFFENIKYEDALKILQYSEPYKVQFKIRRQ
Sequence of MAGI3_4, Q5TCQ9 (Q5TCQ9 716-815): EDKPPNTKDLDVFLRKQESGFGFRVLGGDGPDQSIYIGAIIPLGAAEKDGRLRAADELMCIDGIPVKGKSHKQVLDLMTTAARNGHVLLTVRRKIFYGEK
Sequence of PARD3B_3, Q8TEW8 (Q8TEW8 490-594): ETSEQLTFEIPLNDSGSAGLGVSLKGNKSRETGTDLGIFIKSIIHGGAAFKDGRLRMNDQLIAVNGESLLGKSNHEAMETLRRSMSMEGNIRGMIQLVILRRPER
Sequence of MAGI1_4, Q96QZ7 (Q96QZ7 other isoform, or with tags, fused parts or gaps): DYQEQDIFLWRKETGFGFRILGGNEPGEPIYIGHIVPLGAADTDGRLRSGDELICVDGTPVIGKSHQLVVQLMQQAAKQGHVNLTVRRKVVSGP
Sequence of MAGI3_3, Q5TCQ9 (Q5TCQ9 572-655): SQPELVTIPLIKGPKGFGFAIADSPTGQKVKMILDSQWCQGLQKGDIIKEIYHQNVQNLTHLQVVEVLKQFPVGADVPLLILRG

| pKd (RGS12, O14924) | pKd (CNKSR3, Q6P9H4) | pKd (PARD3B_3, Q8TEW8) | pKd (AHNAK2, Q8IVF2) | pKd (PDZD11, Q5EBL8) | pKd (SNTB2, Q13425) | pKd (USH1C_2, Q9Y6N9) | pKd (PDZD2_4, O15018) | pKd (PREX2_2, Q70Z35) | pKd (GRIP1_1, Q9Y3R0) | pKd (MAGI1_4, Q96QZ7) | pKd (USH1C_1, Q9Y6N9) | pKd (MAGI3_3, Q5TCQ9) | pKd (GIPC1, O14908) | pKd (NHERF3_2, Q5T2W1) | pKd (RIMS1, Q86UR5) | pKd (MPDZ_13, O75970) | pKd (PDLIM4, P50479) | pKd (MPP5, Q8N3R9) | pKd (MAGI3_4, Q5TCQ9) | Binder | further results |
| --- | --- | --- | --- | --- | --- | --- | --- | --- | --- | --- | --- | --- | --- | --- | --- | --- | --- | --- | --- | --- | --- |
| below the threshold | below the threshold | below the threshold | below the threshold | below the threshold | 3.94 | below the threshold | below the threshold | below the threshold | below the threshold | below the threshold | below the threshold | below the threshold | 3.78 | below the threshold | below the threshold | below the threshold | below the threshold | below the threshold | below the threshold | PSRDRKETSI [RALBP1, Q15311] | pKd (MPDZ_2, O75970): below the threshold; pKd (MLLT4, P55196): below the threshold |
| below the threshold | below the threshold | below the threshold | 4.41 | below the threshold | below the threshold | below the threshold | below the threshold | 4.3 | below the threshold | below the threshold | below the threshold | 4.54 | 4.44 | below the threshold | below the threshold | below the threshold | below the threshold | below the threshold | below the threshold | SHSSKGETAV [FZD7, O75084] | pKd (MPDZ_2, O75970): below the threshold; pKd (MLLT4, P55196): below the threshold |
| below the threshold | below the threshold | below the threshold | below the threshold | below the threshold | 4.2 | below the threshold | below the threshold | below the threshold | below the threshold | below the threshold | below the threshold | below the threshold | 4.57 | below the threshold | below the threshold | below the threshold | 4.09 | below the threshold | below the threshold | KLVIKTETTV [RASSF6, Q6ZTQ3] | pKd (MPDZ_2, O75970): below the threshold; pKd (MLLT4, P55196): below the threshold |
